The record followed here is paper PMC7894019.

For the series, the target named is ZNF191 (purified recombinant) (UniProt P17028 1-368). The series is described as follows: EMSA.
Chain of ZNF191 (purified recombinant) (P17028 whole entry): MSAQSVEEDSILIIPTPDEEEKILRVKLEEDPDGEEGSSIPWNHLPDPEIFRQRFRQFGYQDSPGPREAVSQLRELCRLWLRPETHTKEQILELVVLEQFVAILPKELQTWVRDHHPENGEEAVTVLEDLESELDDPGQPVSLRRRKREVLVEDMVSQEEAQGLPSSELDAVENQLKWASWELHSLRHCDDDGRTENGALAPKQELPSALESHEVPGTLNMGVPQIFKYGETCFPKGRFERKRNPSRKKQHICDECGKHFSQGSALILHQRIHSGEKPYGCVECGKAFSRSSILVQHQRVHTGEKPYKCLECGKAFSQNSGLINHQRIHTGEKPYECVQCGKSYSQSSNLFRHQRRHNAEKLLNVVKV

B1: WNT8BP(nt-1178) (dsDNA)
DNA 1: GATTATCATGCATTCATTGTATGCCTGTAT
DNA 2: ATACAGGCATACAATGAATGCATGATAATC
On to B1, for which the binding result is on record as “binds”.

B2: WNT8BP(nt-1491) (dsDNA)
DNA 1: GTGAATTTGTGTATTAATTCTTTATTTTCT
DNA 2: AGAAAATAAAGAATTAATACACAAATTCAC
On to B2, for which the binding result is recorded as “binds”.
